Laboratory results: patent US6753157B2, “Quantitation of individual protein kinase activity” (Promega Corporation, priority 1994, dated 2004)
Ends that are not written are not given here. * marks the point of attachment. biotin C6 = biotin C6 moiety, O=C(CCCC[C@@H]1SC[C@@H]2NC(=O)N[C@@H]21)NCCCCCC(=O)*

Tests used:
[1] = system: Ca2+ and phospholipid dependent protein kinase (PKC); experiment: Protein kinase activity of Ca2+ and phospholipid dependent protein kinase with biotinylated neurogranin(28-43), streptavidin-linked disk, 32P; type: biochemical
Protocol: The protein kinase activity of Ca^2+ and phospholipid dependent protein kinase activity (PKC) was determined in a similar manner to that of PKA described above, except that the biotinylated peptide substrate was a derivative of neurogranin; namely, biotinylated neurogranin(28-43) Chen, S-J, et al., 1993.
The peptide was modified by the addition of biotin containing moiety: *-Ala-Ala-Lys-Ile-Gln-Ala-Ser-Phe-Arg-Gly-His-Met-Ala-Arg-Lys-Lys (Promega Peptide B, SEQ. ID. 2, Mol.Wt. is 2139.6), and was used at a concentration of 100 μM. The enzyme (#V5261, Promega Corporation) was diluted 5× in 100 μg/ml of BSA.
The kinase activity of the […] was determined in a reaction volume of 50 μL consisting of 40 mM Tris. HCl, pH 7.4, 10 mM MgCl2, BSA at 100 μg/ml, and 100 μM of τ-^32P-ATP (sp.act. of 100 cpm/pmol). The activity was determined in the presence and absence of 100 μg/ml of phosphatidylserine, 10 μg/ml of diacylglycerol and 0.4 mM calcium chloride. Reaction was started with the addition of 5 μL of the enzyme and incubated at 25° C. After specified periods of time, reactions were terminated by the addition of 10 μL of terminating solution (see above). Twenty-five μL aliquots were aliquoted on disks and the disks were processed as described above for PKA.

[2] = biological target: T1, cAMP-dependent protein kinase (PKA) (Bos taurus, UniProt P00517); experiment: Kinase activity of cAMP-dependent protein kinase with biotinylated peptide substrate, streptavidin-linked disk, 32P; type: biochemical; settings: PKA 2 Kemptide units per reaction, 100 μM ATP, 37° C., FIG. 3
T1 construct: V5161 (general description)
Protocol: The kinase activity of cAMP-dependent protein kinase (PKA) was carried out in duplicates at each of the various peptide substrate concentrations, in a reaction volume (50 μL) containing 40 mM Tris HCl, pH 7.4, 20 mM MgCl2, 100 μM τ-^32P-ATP (sp.act.of 100-200 cpm/pmol), 100 μg/ml of bovine serum albumin (BSA), and the appropriate biotinylated peptide substrate: *-Leu-Arg-Arg-Ala-Ser-Leu-Gly (Promega Peptide A, SEQ. ID. 1, M.Wt of 998.4).
The reaction was started by addition of the appropriate amount of enzyme (Promega #V5221) to give 2 Kemptide units and incubated for 0, 5, and 10 minutes at 37° C. (one Kemptide unit is defined as the amount of enzyme required to catalyze the incorporation of 1 pmol of phosphate into Kemptide substrate in 1 minute). At specified periods of time at the appropriate temperature, the reaction was terminated with the addition of 10 μL of terminating solution as described above.
Twenty-five μL aliquots were withdrawn and spotted in a 12.5 mm (i.d.) streptavidin-linked disk (0.5 mg of streptavidin/disk) and placed in 2M NaCl-containing beaker. After one minute of gently swirling the beaker at room temperature, fresh NaCl was added. This washing procedure was repeated 5 more times at one minute each. […]
Enzyme activity was calculated by determining the radioactivity via liquid scintillation spectrometry. […]

[3] = system: T2, biotinylated neurogranin(28-43) (Promega Peptide B, *-Ala-Ala-Lys-Ile-Gln-Ala-Ser-Phe-Arg-Gly-His-Met-Ala-Arg-Lys-Lys)
T2 sequence: AAKIQASFRGHMARKK

[4] = system: T3, biotinylated Promega Peptide A (*-Leu-Arg-Arg-Ala-Ser-Leu-Gly)
T3 sequence: LRRASLG

*-Ala-Ala-Lys-Ile-Gln-Ala-Ser-Phe-Arg-Gly-His-Met-Ala-Arg-Lys-Lys ({biotin C6}-AAKIQASFRGHMARKK) [Promega Peptide B, N-terminal Biotin C6 neurogranin-derived peptide substrate for PKC]
substrate concentration at which enzyme activity reached a maximum ([1]; PKC, 25° C., FIG. 7): around 100 μM
PKC activity relative to activity assayed with the phosphocellulose paper method ([1]; biotinylated substrate/streptavidin matrix versus unmodified peptide/phosphocellulose paper): 6-7 fold

*-Leu-Arg-Arg-Ala-Ser-Leu-Gly ({biotin C6}-LRRASLG) [Promega Peptide A, N-terminal Biotin C6 peptide substrate for PKA]
Km [2]: 33 µM
Vmax value [2]: 1.45 pmol/min

Ca2+ and phospholipid dependent protein kinase (PKC) (#V5261, Promega Corporation)
substrate concentration at which kinase activity reached a maximum [3]: the activity of the enzyme reached a maximum around 100 µM of modified substrate

cAMP-dependent protein kinase (PKA), purified enzyme (Promega #V5221)
Km (kinase activity, 32P incorporation into biotinylated peptide captured on streptavidin disks) [4]: a Km Value for the substrate of 33 µM
